{"source": "patent US20210196823A1", "about": "“Methods of Treating Metabolic Disease” (Pfizer Inc., priority 2018, published 2021)", "molecules": {"B1": {"name": "monoFC-huErfe A4: human erythroferrone mono-Fc construct with RARR furin cleavage site mutated to AAAA (protein)", "chain": "AAGLGSPEPGAPSRSAAAAEPPPGNELPRGPGESRAGPAARPPEPTAERAHSVDPRDAWMLFVRQSDKGVNGKKRSRGKAKKLKFGLPGPPGPPGPQGPPGPIIPPEALLKEFQLLLKGAVRQRERAEPEPCTCGPAGPVAASLAPVSATAGEDDDDVVGDVLALLAAPLAPGPRAPRVEAAFLCRLRRDALVERRALHELGVYYLPDAEGAFRRGPGLNLTSGQYRAPVAGFYALAATLHVALGEPPRRGPPRPRDHLRLLICIQSRCQRNASLEAIMGLESSSELFTISVNGVLYLQMGQWTSVFLDNASGCSLTVRSGSHFSAVLLGV"}, "B2": {"name": "Ab 15.1: neutralising anti-ERFE antibody; heavy and light chain SEQ ID NO: 26 and 27 (antibody)", "heavy": "EVQLQQSGPELVKPGASVKMSCKASGYTFTDYSMHWVKQSHGKSLEWIGYINPNSGGTSYNQKFKGKATLTVNKSSSTAYMELRSLTSEDSAVYYCVPYGYDDYWGQGTTLTVSSAKTTAPSVYPLAPVCGDTTGSSVTLGCLVKGYFPEPVTLTWNSGSLSSGVHTFPAVLQSDLYTLSSSVTVTSSTWPSQSITCNVAHPASSTKVDKKIEPRGPTIKPCPPCKCPAPNLEGGPSVFIFPPKIKDVLMISLSPIVTCVVVDVSEDDPDVQISWFVNNVEVHTAQTQTHREDYNSTLRVVSALPIQHQDWMSGKAFACAVNNKDLPAPIERTISKPKGSVRAPQVYVLPPPEEEMTKKQVTLTCMVTDFMPEDIYVEWTNNGKTELNYKNTEPVLDSDGSYFMYSKLRVEKKNWVERNSYSCSVVHEGLHNHHTTKSFSRTPG", "light": "DVLMTQTPLSLPVSLGDQVSISCRSSQSIVHSNGNTYLEWYLQKPGQSPKLLIYKVSNRFSGVPDRFSGSGSGTDFTLRITRVAAEDLGVYYCFQGSHVPLTFGAGTKLELKRTDAAPTVSIFPPSSEQLTSGGASVVCFLNNFYPKDINVKWKIDGSERQNGVLNSWTDQDSKDSTYSMSSTLTLTKDEYERHNSYTCEATHKTSTSPIVKSFNRNEC"}}, "key": {"furin": {"target": "furin (Homo sapiens, UniProt P09958)", "sequence (P09958 108-794, species assumed)": "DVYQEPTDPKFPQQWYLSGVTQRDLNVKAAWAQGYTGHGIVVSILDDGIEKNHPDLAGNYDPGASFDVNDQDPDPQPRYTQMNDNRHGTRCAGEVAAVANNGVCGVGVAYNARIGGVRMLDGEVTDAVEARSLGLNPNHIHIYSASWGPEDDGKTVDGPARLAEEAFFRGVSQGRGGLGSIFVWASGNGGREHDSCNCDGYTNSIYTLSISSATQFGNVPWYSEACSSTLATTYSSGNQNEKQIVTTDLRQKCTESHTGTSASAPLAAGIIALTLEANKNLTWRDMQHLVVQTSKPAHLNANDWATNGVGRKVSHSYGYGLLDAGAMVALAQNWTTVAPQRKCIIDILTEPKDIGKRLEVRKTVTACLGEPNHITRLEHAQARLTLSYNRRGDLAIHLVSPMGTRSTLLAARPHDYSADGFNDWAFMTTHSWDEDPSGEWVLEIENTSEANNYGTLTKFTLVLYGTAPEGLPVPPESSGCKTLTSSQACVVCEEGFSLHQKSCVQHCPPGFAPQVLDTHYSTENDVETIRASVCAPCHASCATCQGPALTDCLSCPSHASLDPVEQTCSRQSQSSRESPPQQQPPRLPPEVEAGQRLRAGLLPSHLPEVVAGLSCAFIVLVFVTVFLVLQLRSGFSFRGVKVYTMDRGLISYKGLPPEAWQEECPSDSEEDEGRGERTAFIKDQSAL", "test": "Furin cleavage of wild-type and RARR-AAAA (A4) Erfe mutant, Coomassie staining", "assay_type": "biochemical", "settings": "RARR site mutated to AAAA vs wild-type", "from_the_text": "FIG. 7. Mutation of the RARR furin cleavage site at the N-terminal of Erfe prevents cleavage by furin. (FIG. 7A) Diagrammatic structure of full length human erythroferrone and potential subunits generated after furin cleavage. (FIG. 7B) Coomassie blue staining of wild-type and an RARR-AAAA(A4) Erfe mutant, in the presence or absence of furin protease.\nSequence analysis of human erythroferrone using the ProP software predicted two furin cleavage sites: RARR at position 42 and RLRR at position 212 (FIG. 7A). The RLRR site is conserved in the mouse ortholog (position 198)."}, "Huh7 cells": {"tested_on": "Huh7 cells", "test": "Activity of erythroferrone domains and subunits in Huh7 cells (qRT-PCR)", "assay_type": "cell-based", "settings": "FIG. 8A", "experimental": "FIG. 6. The C1q domain is not required for erythroferrone activity: (FIG. 6A) Huh7 cells were treated for 24 h with full-length or C1q domain of human erythroferrone (10 μg/ml). (FIG. 6B) Huh7 cells were treated for 24 h with adipoferrone (construct containing N-terminal domain of adiponectin and C1q domain of erythroferrone) or C1q trimer (Tri-C1q) derived from mouse erythroferrone at 10 μg/ml. Gene expression measured by qRT-PCR. Data represents mean+standard deviation (n=3). ***p<0.001; ****p<0.0001.\nFIG. 8. Erythroferrone subunits designed based on predicted patterns of furin cleavage differ in their ability to suppress hepcidin: (FIG. 8A) mono-Fc-huERFE A4 construct suppresses hepcidin expression, (FIG. 8B) Huh7 cells were treated for 24 h with human erythroferrone subunits that were designed to represent all the potential Erfe subunits that could be formed assuming activity at both in silico-predicted furin cleavage sites. (see FIG. 7A). Gene expression measured by qRT-PCR. Data represents mean+standard deviation (n=3). ***p<0.001; ****p<0.0001.\nErythroferrone is a member of the C1q/TNF-related protein (CTRP) family and comprises a structure composed of a signal peptide, an N-terminal, a collagen-like domain, and a globular C terminal domain homologous to complement protein 1q (C1q). […]"}, "[1]": {"tested_on": "ERFE suppression of hepcidin production", "test": "NanoLuc assay: anti-ERFE antibody with monoFC-huErfe and BMP6", "assay_type": "cell-based", "settings": "tripling dilutions from 500 nM, BMP6 625 pM, monoFC-huErfe 20 nM", "experimental": "The was measured in-vitro using as follows: A hepcidin transcriptional fusion reporter assay (nano-luc or nano-luciferase assay) was developed to assess the effect of BMPs on hepcidin production in-vitro. A nanoluciferase reporter was inserted at the end of the coding sequence of the endogenous HAMP gene, in HepG2 hepatoma cells, creating a HAMP-nanoluciferase fusion. CRISPR-Cas9 was used to edit the cells with this knock-in reporter construct. A bovine Growth Hormone poly A was included after the nanoLuc to ensure proper mRNA processing. A Puromycin-TK expression cassette was also included 3′ of the nanoluc reporter to enrich for properly targeted clones. Clones that were homozygous for the HAMP-NanoLuc fusion were selected and tested for their response to BMPs and LDN(4-[6-[4-(1-Piperazinyl)phenyl]pyrazolo[1,5-a]pyrimidin-3-yl]quinoline dihydrochloride), a potent ALK2/3 BMP inhibitor, a schematic of the nano-luc construct is shown in FIG. 1B. The effect of representative BMPs (BMP, 2, 6, 9) on the Hamp-nanoLuc signal was assessed. Approximately 20,000 cells (cells split with trypsin/EDTA) were suspended in 200 uL of complete media (DMEM+10% serum+Na pyruvate) and were distributed into each well of 96-well plates and incubated for 24 hours at 37 C. […] Plates were read on Envision with Lum700 program following the manufacturer's instructions. […]"}, "murine ERFE": {"target": "T1, murine ERFE (Mus musculus, UniProt Q6PGN1)", "T1 sequence (Q6PGN1 25-340)": "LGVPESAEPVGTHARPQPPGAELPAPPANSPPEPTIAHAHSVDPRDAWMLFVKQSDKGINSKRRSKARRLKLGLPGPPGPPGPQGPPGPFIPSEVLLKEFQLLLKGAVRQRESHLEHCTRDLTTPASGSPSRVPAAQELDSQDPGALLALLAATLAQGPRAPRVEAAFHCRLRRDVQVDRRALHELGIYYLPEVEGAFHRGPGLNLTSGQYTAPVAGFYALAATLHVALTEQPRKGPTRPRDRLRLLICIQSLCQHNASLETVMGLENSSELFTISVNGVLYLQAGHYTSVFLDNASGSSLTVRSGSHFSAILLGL", "test": "HAMP and ID1 qRT-PCR in HUH7 cells with BMP 5, 6 or 7, murine ERFE and anti-ERFE antibody 15.1", "assay_type": "cell-based", "settings": "BMP 5, 6 or 7 2 nM, murine ERFE 1 μg/ml, antibody 10 μg/ml, 6 h", "experimental": "HUH7 cells treated with BMP 5, 6 or 7 (2 nM), murine ERFE (1 μg/ml) and anti-ERFE antibody 15.1 (10 μg/ml), alone or in combination, for 6 h. HAMP and ID1 gene expression was measured by qRT-PCR and expressed as fold-change relative to untreated cells, FIGS. 11A and 11B."}}, "data": [{"molecule": "B1", "values": [{"measurement": "clipping of human erythroferrone after treatment with furin", "setting": "furin", "result": "reduced the clipping"}, {"measurement": "hepcidin expression", "setting": "Huh7 cells", "result": "effectively suppress"}]}, {"molecule": "B2", "values": [{"measurement": "inhibition of ERFE suppression of hepcidin production", "setting": "[1]", "result": "inhibit ERFE suppression of hepcidin production in a dose-dependent manner"}, {"measurement": "block of ERFE activity on BMPs (HAMP and ID1 expression)", "setting": "murine ERFE", "result": "prevent BMP inhibition"}]}]}
